According to PMC11868986, “Identification of Schizophrenia‐Risk Regulatory Variant rs1399178 in the Non‐coding Region With Its Impact on NRF1 Binding”:

Molecular target: T1, NRF1 DD-DBD (Homo sapiens, UniProt Q16656 49-288)
T1 sequence: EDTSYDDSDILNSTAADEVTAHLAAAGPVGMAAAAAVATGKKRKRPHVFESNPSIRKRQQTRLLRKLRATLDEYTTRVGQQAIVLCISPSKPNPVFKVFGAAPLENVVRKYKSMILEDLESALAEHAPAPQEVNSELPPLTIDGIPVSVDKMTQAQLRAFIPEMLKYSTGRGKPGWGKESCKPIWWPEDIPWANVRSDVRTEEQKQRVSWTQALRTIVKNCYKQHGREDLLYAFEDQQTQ
Assay: ITC; two-site fit; DNA 500 uM into 50 uM protein; Kd only in Fig 4B; ITC: 50 mM Tris pH 8.0, 100 mM NaCl, 1 mM EDTA, 1 mM DTT, 25 C; EMSA: Thermo 20148 kit, SH-SY5Y nuclear extract
Settings: protein: recombinant; cleaved with HRV 3C when needed; chain copies: 2

B1: RS(WT) / RS(G) (dsDNA)
DNA 1: GGCGCAGCCGCAGC
DNA 2: GCTGCGGCTGCGCC
binding result: binds
